Source: doi:10.1101/2021.05.25.445566 (bioRxiv, 2021)

T1: MlaF K47A (Walker A variant) (UniProt P63386 1-269, K47A)
T1 sequence: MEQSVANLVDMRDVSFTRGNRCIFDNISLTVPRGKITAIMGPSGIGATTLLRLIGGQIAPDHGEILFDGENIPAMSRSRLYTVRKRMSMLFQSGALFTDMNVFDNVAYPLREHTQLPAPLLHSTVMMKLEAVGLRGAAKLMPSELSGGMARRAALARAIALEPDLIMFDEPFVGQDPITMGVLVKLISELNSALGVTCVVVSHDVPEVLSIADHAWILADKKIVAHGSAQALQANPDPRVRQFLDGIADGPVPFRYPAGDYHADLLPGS

T2: MlaF, nucleotide binding domain of the MlaFEDB ABC transporter (UniProt P63386 1-269)
T2 sequence: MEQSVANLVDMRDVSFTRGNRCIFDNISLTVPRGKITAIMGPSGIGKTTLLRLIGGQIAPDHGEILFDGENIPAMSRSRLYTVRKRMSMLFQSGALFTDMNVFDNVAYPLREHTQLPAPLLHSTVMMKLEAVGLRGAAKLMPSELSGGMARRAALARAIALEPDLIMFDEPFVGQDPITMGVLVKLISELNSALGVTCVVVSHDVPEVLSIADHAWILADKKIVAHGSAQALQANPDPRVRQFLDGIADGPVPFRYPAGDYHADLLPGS

B1: MlaE, His-tagged (His-E), permease of the MlaFEDB ABC transporter (natural protein)
chain: MLLNALASLGHKGIKTLRTFGRAGLMLFNALVGKPEFRKHAPLLVRQLYNVGVLSMLIIVVSGVFIGMVLGLQGYLVLTTYSAETSLGMLVALSLLRELGPVVAALLFAGRAGSALTAEIGLMRATEQLSSMEMMAVDPLRRVISPRFWAGVISLPLLTVIFVAVGIWGGSLVGVSWKGIDSGFFWSAMQNAVDWRMDLVNCLIKSVVFAITVTWISLFNGYDAIPTSAGISRATTRTVVHSSLAVLGLDFVLTALMFGN

Tests used:
[1] = molecular target: the molecule itself; experiment: SDS-PAGE of SDS-resistant oligomers
[2] = molecular target: B1; experiment: SEC
[3] = molecular target: T1, MlaF K47A (Walker A variant); experiment: SEC
[4] = molecular target: T2, MlaF, nucleotide binding domain of the …; experiment: SEC

| binding result [2] | binding result [3] | binding result [4] | Binder | stoichiometry N [1] |
| --- | --- | --- | --- | --- |
| binds |  |  | MlaD Δ141-183 (natural protein) MQTKKNEIWVGIFLLAALLAALFVCLKAANVTSIRTEPTYTLYATFDNIGGLKARSPVSIGGVVVGRVADITLDPKTYLPRVTLEIEQRYNHIPDTSSLSIRTSGLLGEQYLALNVGFEDPELGTAILKDGDTIQDTKSA | 6 |
| binds |  |  | MlaD, substrate-binding MCE-domain protein of the MlaFEDB complex (natural protein) MQTKKNEIWVGIFLLAALLAALFVCLKAANVTSIRTEPTYTLYATFDNIGGLKARSPVSIGGVVVGRVADITLDPKTYLPRVTLEIEQRYNHIPDTSSLSIRTSGLLGEQYLALNVGFEDPELGTAILKDGDTIQDTKSAMVLEDLIGQFLYGSKGDDNKNSGDAPAAAPGNNETTEPVGTTK |  |
| binds |  |  | MlaD L106N/L107N (natural protein) MQTKKNEIWVGIFLLAALLAALFVCLKAANVTSIRTEPTYTLYATFDNIGGLKARSPVSIGGVVVGRVADITLDPKTYLPRVTLEIEQRYNHIPDTSSLSIRTSGNNGEQYLALNVGFEDPELGTAILKDGDTIQDTKSAMVLEDLIGQFLYGSKGDDNKNSGDAPAAAPGNNETTEPVGTTK | 6 |
| binds |  |  | MlaB, cytoplasmic STAS-domain protein of the MlaFEDB complex (natural protein) MSESLSWMQTGDTLALSGELDQDVLLPLWEMREEAVKGITCIDLSRVSRVDTGGLALLLHLIDLAKKQGNNVTLQGVNDKVYTLAKLYNLPADVLPR |  |
| binds |  |  | MlaB T52A (natural protein) MSESLSWMQTGDTLALSGELDQDVLLPLWEMREEAVKGITCIDLSRVSRVDAGGLALLLHLIDLAKKQGNNVTLQGVNDKVYTLAKLYNLPADVLPR |  |
|  | binds | binds | B1 |  |
